Measurements as given in patent US7854918B2, “Composition for medical use having improved water-solubility of peptide and metal-labeling efficiency and preparation for medical use comprising metal-labeled peptide” (Nihon Medi-Physics Co., Ltd., priority 2004, dated 2010).
Entries after “also recorded” stand apart in the source; their conditions may differ. Square brackets hold non-standard residues; d marks the D form. Ends that are not written are not given here. * marks the point of attachment. Nle = CCCC[C@H](N)C(=O)O; For = O=C*

Tests used:
Type in all cases: physicochemical
[1] = External observation of peptide sample solutions (presence or absence of white turbidity)
Method: (§1) Peptide 1, Peptide 2, and Peptide 3 (100 μg each) were separately added to 410 mM arginine solutions (pH 11) to adjust each total amount to 700 μL. Molarities in these solutions are 94 μM (Peptide 1), 99 μM (Peptide 2), and 161 μM (Peptide 3). […] Then, 200 μL each of the sample solutions was filtered with a filter Millex (registered trademark)-GV (trade name, manufactured by Nihon Millipore) with a pore size of 0.22 μm. The sample solutions before filtration and the sample solutions after filtration were respectively analyzed by reverse-phase HPLC. Peak area percentages were determined from the peak area values of the peptides before and after filtration and used as elution rates. HPLC analytical conditions are shown below.
(§2) For a comparative example, Peptide 1, Peptide 2, and Peptide 3 were separately dissolved in each of water and dimethylsulfoxide (DMSO) to prepare samples having a peptide concentration of 94 μM, 99 μM, or 161 μM, which were studied in the same way as above.
(§3) Arginine, lysine, and histidine were separately dissolved in water to prepare 410 mM arginine solution, 489 mM lysine solution, and 90 mM histidine solution. An aqueous solution of sodium hydroxide and hydrochloric acid were added to these solutions to adjust the pH of the aqueous solutions of lysine and histidine to 8, 9, 10, and 11, and the pH of the aqueous solution of arginine to 8, 8.5, 9, 9.5, 10, and 11. Subsequently, Peptide 1 was added to these aqueous solutions to prepare 94 μM Peptide 1 solutions. […] Then, 200 μL each of the sample solutions was filtered with a filter Millex (registered trademark)-GV (trade name, manufactured by Nihon Millipore) with a pore size of 0.22 μm. The sample solutions before filtration and the sample solutions after filtration were respectively analyzed by reverse-phase HPLC. Peak area percentages were determined from the peak area values of Peptide 1 before and after filtration and used as elution rates. HPLC analytical conditions were the same as the conditions described in Example 1.
(§4) Imidazole was dissolved in water to prepare 1 mM imidazole solution. pH was adjusted to 8, 8.5, and 9 by adding an appropriate amount of hydrochloric acid to this solution. Subsequently, Peptide 1 was added to these imidazole solutions to prepare 94 μM Peptide 1 solutions. […] Then, 200 μL each of the sample solutions was filtered with a filter Millex (registered trademark)-GV (trade name, manufactured by Nihon Millipore) with a pore size of 0.22 μm. The sample solutions before filtration and the sample solutions after filtration were respectively analyzed by reverse-phase HPLC. Peak area percentages were determined from the peak area values of Peptide 1 before and after filtration and used as elution rates. HPLC analytical conditions were the same as the conditions described in Example 1.
(§5) Disodium hydrogen phosphate, sodium dihydrogen citrate, sodium ascorbate, and imidazole were separately dissolved in water to prepare their respective aqueous solutions with pH 9 at concentrations described in Table 4. pH adjustment was performed with hydrochloric acid and an aqueous solution of sodium hydroxide. The above-described aqueous solutions were separately added to the weighed Peptide 1 to prepare 94 μM Peptide 1 solutions. […] These Peptide 1 solutions were compared with the Peptide 1 sample solutions using the respective aqueous solutions of disodium hydrogen phosphate, sodium dihydrogen citrate, and sodium ascorbate used as comparative controls. Subsequently, 200 μL each of the sample solutions was filtered with a filter Millex (registered trademark)-GV (trade name, manufactured by Nihon Millipore) with a pore size of 0.22 μm. The sample solutions before filtration and the sample solutions after filtration were respectively analyzed by reverse-phase HPLC. […]

[2] = Elution rate: reverse-phase HPLC peak area of the peptide after vs before 0.22 μm filtration
Method: as §1, §2
Column: Cosmosil 5C18-AR-300 (Manufactured by Nacalai Tesque, 4.6×150 mm)
(§6) Detection: ultraviolet and visible spectrophotometer (detection wavelength: 220 nm)
HPLC system: Alliance (manufactured by Waters, Japan)
Eluant A: 0.1% trifluoroacetic acid (hereinafter, TFA)/purified water
(§7) Eluant B: 0.1% TFA/acetonitrile
(§8) Concentration gradient: 0 min (Eluant B 20%)→25 min (Eluant B 70%)
as §3, §4
as §5, with “controls.” for “controls. Subsequently, 200 μL each of the sample solutions was filtered with a filter Millex (registered trademark)-GV (trade name, manufactured by Nihon Millipore) with a pore size of 0.22 μm. The sample solutions before filtration and the sample solutions after filtration were respectively analyzed by reverse-phase HPLC.”

[3] = Tc-99m labeling at room temperature, radiochemical purity by HPLC
Method: (§9) Peptide 1 was dissolved in the aqueous solution of arginine with pH 10 obtained in Example 2 to prepare 9.4 μM peptide/arginine solution. 25 μL of a solution of 10 mL of 0.01 M hydrochloric acid supplemented with 5 mg of stannous chloride solution was added to 700 μL of the peptide/arginine solution, and 0.6 to 1.0 GBq of Tc-99m-sodium pertechnetate (hereinafter, 99 mTcO4^−) solution was quickly added thereto to adjust the total amount to 1 mL. After the labeling procedure, the peptide concentration was diluted to 6.6 μM. After shaking for several seconds, the solution was reacted at room temperature. A portion thereof was taken on 10 minutes and 90 minutes after the labeling procedure to determine each Tc-99m labeling rate by HPLC and TLC. The HPLC and TLC analyses were performed under conditions described below.
(§10) For comparative controls, Peptide 1 was dissolved in dimethylsulfoxide (DMSO) and then diluted 10-fold with 100 mM phosphate buffer solution (hereinafter, PB) with pH 10 to prepare a peptide/DMSO/PB solution with the final peptide concentration of 9.4 μM. Alternatively, Peptide 1 was dissolved in PB to prepare a peptide/PB solution with the final peptide concentration of 9.4 μM. These solutions were labeled in the same way as in the peptide/arginine solution to determine each Tc-99m labeling rate by HPLC and TLC. After the labeling procedure, the peptide concentration was diluted to 6.6 μM.
Column: Cosmosil 5C18-AR-300 (manufactured by Nacalai Tesque, 4.6×150 mm)
as §6
Radioactivity detector: STEFFI NaI scintillator (manufactured by Raytest)
Eluant A: 0.1% TFA/purified water
as §7, §8

[4] = Tc-99m labeling at room temperature, radiochemical purity by TLC
Method: as §9, §10
Plate: Silica Gel 60F254 (manufactured by Merck)
Developing solvent: 28% ammonia water/acetonitrile=½
Radioactivity detector: Gita NaI scintillator (manufactured by Raytest)
12.5, 25, and 50 mg of arginine was weighed, then dissolved in water, and adjusted with hydrochloric acid to pH 10 to adjust each total amount to 700 μL. Molarities in these solutions are 102.5 mM, 205 mM, and 410 mM, respectively. Peptide 1 was dissolved in these aqueous solutions of arginine to prepare respective 9.4 μM peptide/arginine solutions. 25 μL of a solution of 10 mL of 0.01 M hydrochloric acid supplemented with 5 mg of stannous chloride solution was added to each of the peptide/arginine solutions, and 0.6 to 1.0 GBq of 99 mTcO4^− solution was quickly added thereto to adjust each total amount to 1 mL. After shaking for several seconds, the solutions were reacted at room temperature. A portion thereof was taken on 30 minutes, 90 minutes, 180 minutes, 360 minutes, 24 hours, and 30 hours after the labeling procedure to determine each radiochemical purity by TLC analysis under the conditions described in Example 5.

[5] = 410 mM arginine solution, pH 11, peptide 94/99/161 μM
[6] = solvent DMSO, peptide 94/99/161 μM
[7] = solvent water, peptide 94 μM (Peptide 1), 99 μM (Peptide 2), 161 μM (Peptide 3)
[8] = 1 mM imidazole, pH 8, 94 μM peptide
[9] = 90 mM histidine, pH 9, 94 μM peptide
[10] = 100 mM disodium hydrogen phosphate, pH 9, 94 μM peptide
[11] = 410 mM arginine, pH 9, 94 μM peptide
[12] = 489 mM lysine, pH 9, 94 μM peptide
[13] = aqueous solutions of arginine, lysine and histidine at pH 9 or more
[14] = Tc-99m labeling in DMSO/phosphate buffer solution pH 10, room temperature, 10 minutes
[15] = Tc-99m labeling in DMSO/phosphate buffer solution pH 10, room temperature, 90 minutes
[16] = Tc-99m labeling in phosphate buffer solution pH 10, room temperature, 10 minutes

formyl-Met-Leu-Phe-Lys-ε(-Gly-Asp-Ac—S-Bzl) (For-MLFKGD; not fully specified (C-terminus); printed as formyl-Met-Leu-Phe-Lys-ε(-Gly-Asp-Ac—S-Bzl); also: Gly-Asp attached through Lys epsilon-amino (branch)) [Peptide 3]
Appearance [1, 5]: Colorless,
Appearance [1, 6]: Colorless,
Appearance [1, 7]: Whitish
Elution rate [2, 5]: 101.3%
Elution rate [2, 6]: 108.5%

formyl-Nle-Leu-Phe-Nle-Tyr-Lys(NH2)-ε(-Ser-D-Arg-Asp-Cys-Asp-Asp) (For-[Nle]LF[Nle]YKS[dR]DCDD; also: Lys(NH2): Lys α-carboxamide, Ser-D-Arg-Asp-Cys-Asp-Asp branch on Lys ε-amine) [Peptide 1]
Appearance [1, 8]: colorless and transparent
Appearance ([1]; 1 mM imidazole, pH 8.5, 94 μM peptide): colorless and transparent
Appearance ([1]; 1 mM imidazole, pH 9, 94 μM peptide): colorless and transparent
Appearance [1, 9]: colorless, transparent
Appearance [1, 10]: colorless, transparent
Appearance ([1]; 243 mM sodium dihydrogen citrate, pH 9, 94 μM peptide): white turbidity; also recorded: Whitish
Appearance ([1]; 401 mM sodium ascorbate, pH 9, 94 μM peptide): white turbidity; also recorded: Whitish
Appearance [1, 5]: Colorless,
Appearance ([1]; 410 mM arginine, pH 8, 94 μM peptide): Evident white turbidity
Appearance [1, 11]: colorless, transparent
Appearance [1, 12]: colorless, transparent
Appearance ([1]; aqueous solutions of arginine, lysine and histidine at pH 8.5 or less): Weak white turbidity
Appearance [1, 13]: colorless, transparent
Appearance [1, 6]: Colorless,
Appearance [1, 7]: Whitish
Elution rate [2, 8]: 64.9%
Elution rate [2, 9]: 85.9%
Elution rate ([2]; 90 mM histidine, pH 10, 94 μM peptide): 90.7%
Elution rate ([2]; 90 mM histidine, pH 11, 94 μM peptide): 96.7%
Elution rate [2, 10]: 53.8%
Elution rate [2, 5]: 100.8%
Elution rate ([2]; 410 mM arginine, pH 8.5, 94 μM peptide): 43.8%
Elution rate [2, 11]: 93.8%
Elution rate ([2]; 410 mM arginine, pH 9.5, 94 μM peptide): 95.4%
Elution rate ([2]; 410 mM arginine, pH 10, 94 μM peptide): 98.8%
Elution rate [2, 12]: 89.0%
Elution rate ([2]; 489 mM lysine, pH 10, 94 μM peptide): 83.6%
Elution rate ([2]; 489 mM lysine, pH 11, 94 μM peptide): 85.9%
Elution rate [2, 13]: ≥ 85%
Elution rate [2, 6]: 98.6%
Radiochemical purity (HPLC) [3, 14]: 72.0%
Radiochemical purity (HPLC) [3, 15]: 75.4%
Radiochemical purity (HPLC) [3, 16]: 55.3%
Radiochemical purity (TLC) ([4]; 102.5 mM arginine pH 10, 30 minutes after labeling): 93.3%
Radiochemical purity (TLC) ([4]; 102.5 mM arginine pH 10, 90 minutes after labeling): 92.6%
Radiochemical purity (TLC) ([4]; 102.5 mM arginine pH 10, 180 minutes after labeling): 92.6%
Radiochemical purity (TLC) ([4]; 102.5 mM arginine pH 10, 360 minutes after labeling): 91.2%
Radiochemical purity (TLC) ([4]; 102.5 mM arginine pH 10, 24 hours after labeling): 88.9%
Radiochemical purity (TLC) ([4]; 102.5 mM arginine pH 10, 30 hours after labeling): 89.8%
Radiochemical purity (TLC) ([4]; 205 mM arginine pH 10, 30 minutes after labeling): 92.0%
Radiochemical purity (TLC) ([4]; 205 mM arginine pH 10, 90 minutes after labeling): 90.8%
Radiochemical purity (TLC) ([4]; 205 mM arginine pH 10, 180 minutes after labeling): 89.7%
Radiochemical purity (TLC) ([4]; 205 mM arginine pH 10, 360 minutes after labeling): 89.7%
Radiochemical purity (TLC) ([4]; 205 mM arginine pH 10, 24 hours after labeling): 88.3%
Radiochemical purity (TLC) ([4]; 205 mM arginine pH 10, 30 hours after labeling): 87.3%
Radiochemical purity (TLC) ([4]; 410 mM arginine pH 10 (Example 6), 30 minutes after labeling): 91.6%
Radiochemical purity (TLC) ([4]; 410 mM arginine pH 10 (Example 6), 90 minutes after labeling): 89.5%
Radiochemical purity (TLC) ([4]; 410 mM arginine pH 10 (Example 6), 180 minutes after labeling): 87.1%
Radiochemical purity (TLC) ([4]; 410 mM arginine pH 10 (Example 6), 360 minutes after labeling): 85.7%
Radiochemical purity (TLC) ([4]; 410 mM arginine pH 10 (Example 6), 24 hours after labeling): 86.5%
Radiochemical purity (TLC) ([4]; 410 mM arginine pH 10 (Example 6), 30 hours after labeling): 84.9%
Radiochemical purity (TLC) [4, 14]: 45.7%
Radiochemical purity (TLC) [4, 15]: 41.9%
Radiochemical purity (TLC) [4, 16]: 28.0%
Radiochemical purity (TLC) ([4]; Tc-99m labeling in phosphate buffer solution pH 10, room temperature, 90 minutes): 33.6%

formyl-Nle-Leu-Phe-Nle-Tyr-Lys(NH2)-ε(-Ser-D-Arg-DTPA*) (For-[Nle]LF[Nle]YKS[dR]; not fully specified (C-terminus); also: Lys(NH2): Lys α-carboxamide, Ser-D-Arg branch on Lys ε-amine, DTPA* at end of Ser-D-Arg branch) [Peptide 2]
Appearance [1, 5]: Colorless,
Appearance [1, 6]: Colorless,
Appearance [1, 7]: Whitish
Elution rate [2, 5]: 102.8%
Elution rate [2, 6]: 100.9%
